In article PMC4351158 (Structure (London, England : 1993), 2015):
Where no end group is shown, it is not given here. fluorescein = fluorescein, a fluorescent label on the peptide N-terminus

Experiments:
Experiment in all cases: fluorescence polarisation
DegS I179A/H198P = molecular target: T1, DegS I179A/H198P (E. coli, UniProt P0AEE3 27-355, I179A | H198P)
T1 sequence (looked up): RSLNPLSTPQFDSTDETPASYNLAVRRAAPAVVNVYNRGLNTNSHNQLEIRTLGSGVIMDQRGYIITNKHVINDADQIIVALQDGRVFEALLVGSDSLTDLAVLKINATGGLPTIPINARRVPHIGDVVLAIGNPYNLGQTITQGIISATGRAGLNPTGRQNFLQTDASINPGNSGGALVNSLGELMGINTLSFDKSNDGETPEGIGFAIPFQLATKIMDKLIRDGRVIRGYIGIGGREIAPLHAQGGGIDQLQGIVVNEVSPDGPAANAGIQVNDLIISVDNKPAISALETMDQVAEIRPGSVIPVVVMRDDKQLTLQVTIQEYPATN

DegS I232A = molecular target: T2, DegS I232A (E. coli, UniProt P0AEE3 27-355, I232A)
T2 sequence (looked up): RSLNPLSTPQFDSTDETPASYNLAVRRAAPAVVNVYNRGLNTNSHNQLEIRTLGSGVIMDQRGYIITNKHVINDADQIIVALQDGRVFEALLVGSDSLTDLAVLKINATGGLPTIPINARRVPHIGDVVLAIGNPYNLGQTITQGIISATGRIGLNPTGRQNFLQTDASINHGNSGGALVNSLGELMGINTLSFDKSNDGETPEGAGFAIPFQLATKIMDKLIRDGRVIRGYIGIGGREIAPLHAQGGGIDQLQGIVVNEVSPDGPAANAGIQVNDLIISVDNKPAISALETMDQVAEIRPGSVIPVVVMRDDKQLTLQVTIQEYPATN

DegS T167V/H198P = molecular target: T3, DegS T167V/H198P (E. coli, UniProt P0AEE3 27-355, T167V | H198P)
T3 sequence (looked up): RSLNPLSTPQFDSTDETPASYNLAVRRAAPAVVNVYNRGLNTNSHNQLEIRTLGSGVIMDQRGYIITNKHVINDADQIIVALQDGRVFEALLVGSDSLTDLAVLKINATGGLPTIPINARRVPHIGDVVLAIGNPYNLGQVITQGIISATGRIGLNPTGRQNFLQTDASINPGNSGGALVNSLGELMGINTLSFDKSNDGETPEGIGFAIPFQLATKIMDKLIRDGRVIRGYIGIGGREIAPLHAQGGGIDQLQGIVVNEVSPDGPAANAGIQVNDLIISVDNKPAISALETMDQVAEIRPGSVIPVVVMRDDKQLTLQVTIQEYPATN

DegS R178A/H198P = molecular target: T4, DegS R178A/H198P (E. coli, UniProt P0AEE3 27-355, R178A | H198P)
T4 sequence (looked up): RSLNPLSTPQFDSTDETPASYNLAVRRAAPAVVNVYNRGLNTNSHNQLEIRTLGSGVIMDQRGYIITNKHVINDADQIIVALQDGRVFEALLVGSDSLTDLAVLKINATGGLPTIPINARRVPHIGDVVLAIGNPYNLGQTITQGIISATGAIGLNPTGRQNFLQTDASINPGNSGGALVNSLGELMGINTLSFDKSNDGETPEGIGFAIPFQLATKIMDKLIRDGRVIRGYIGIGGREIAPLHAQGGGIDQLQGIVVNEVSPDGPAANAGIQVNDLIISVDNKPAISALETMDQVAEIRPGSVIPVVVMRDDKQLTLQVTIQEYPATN

DegS H198P = molecular target: T5, DegS H198P (E. coli, UniProt P0AEE3 27-355, H198P)
T5 sequence (looked up): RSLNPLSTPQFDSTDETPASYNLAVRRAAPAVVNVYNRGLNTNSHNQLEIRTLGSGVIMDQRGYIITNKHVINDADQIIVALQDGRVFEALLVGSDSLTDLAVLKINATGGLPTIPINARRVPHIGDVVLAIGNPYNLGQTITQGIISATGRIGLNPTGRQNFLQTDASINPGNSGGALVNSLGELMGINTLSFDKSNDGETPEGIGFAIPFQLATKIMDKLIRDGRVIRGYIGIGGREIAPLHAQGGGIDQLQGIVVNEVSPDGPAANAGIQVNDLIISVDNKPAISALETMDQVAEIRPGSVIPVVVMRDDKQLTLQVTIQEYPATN

DegS P161A = molecular target: T6, DegS P161A (E. coli, UniProt P0AEE3 27-355, P161A)
T6 sequence (looked up): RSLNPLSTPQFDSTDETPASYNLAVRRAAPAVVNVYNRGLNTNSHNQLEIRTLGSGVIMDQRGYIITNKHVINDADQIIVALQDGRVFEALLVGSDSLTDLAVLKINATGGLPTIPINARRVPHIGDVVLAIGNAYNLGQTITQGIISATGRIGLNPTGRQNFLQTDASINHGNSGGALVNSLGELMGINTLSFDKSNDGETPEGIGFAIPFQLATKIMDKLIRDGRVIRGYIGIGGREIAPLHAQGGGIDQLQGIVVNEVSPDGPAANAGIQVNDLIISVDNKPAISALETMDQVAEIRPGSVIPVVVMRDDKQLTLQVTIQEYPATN

## fluorescein-DNRDGNVYYF [fluorescent OMP peptide fluorescein-DNRDGNVYYF]
DegS I179A/H198P
  Kd: 1600 ± 100 nM
DegS I232A
  Kd: 2200 ± 300 nM
DegS T167V/H198P
  Kd: 1900 ± 700 nM
DegS R178A/H198P
  Kd: 4 ± 0.1 µM
DegS H198P
  Kd: 2500 ± 300 nM
DegS P161A
  Kd: 1500 ± 100 nM
